Data published in patent US20240174744A1 (SCIRHOM, published 2024).

Tests used:
[1] = molecular target: T1, hiR2-FL-I566E-T7 (human iRhom2 full length I566E, 3 x T7 tag) (human, UniProt Q6PJF5 1-856); test: FACS on MEF-DKO-hiR2-FL-I566E-T7 cells
T1 sequence: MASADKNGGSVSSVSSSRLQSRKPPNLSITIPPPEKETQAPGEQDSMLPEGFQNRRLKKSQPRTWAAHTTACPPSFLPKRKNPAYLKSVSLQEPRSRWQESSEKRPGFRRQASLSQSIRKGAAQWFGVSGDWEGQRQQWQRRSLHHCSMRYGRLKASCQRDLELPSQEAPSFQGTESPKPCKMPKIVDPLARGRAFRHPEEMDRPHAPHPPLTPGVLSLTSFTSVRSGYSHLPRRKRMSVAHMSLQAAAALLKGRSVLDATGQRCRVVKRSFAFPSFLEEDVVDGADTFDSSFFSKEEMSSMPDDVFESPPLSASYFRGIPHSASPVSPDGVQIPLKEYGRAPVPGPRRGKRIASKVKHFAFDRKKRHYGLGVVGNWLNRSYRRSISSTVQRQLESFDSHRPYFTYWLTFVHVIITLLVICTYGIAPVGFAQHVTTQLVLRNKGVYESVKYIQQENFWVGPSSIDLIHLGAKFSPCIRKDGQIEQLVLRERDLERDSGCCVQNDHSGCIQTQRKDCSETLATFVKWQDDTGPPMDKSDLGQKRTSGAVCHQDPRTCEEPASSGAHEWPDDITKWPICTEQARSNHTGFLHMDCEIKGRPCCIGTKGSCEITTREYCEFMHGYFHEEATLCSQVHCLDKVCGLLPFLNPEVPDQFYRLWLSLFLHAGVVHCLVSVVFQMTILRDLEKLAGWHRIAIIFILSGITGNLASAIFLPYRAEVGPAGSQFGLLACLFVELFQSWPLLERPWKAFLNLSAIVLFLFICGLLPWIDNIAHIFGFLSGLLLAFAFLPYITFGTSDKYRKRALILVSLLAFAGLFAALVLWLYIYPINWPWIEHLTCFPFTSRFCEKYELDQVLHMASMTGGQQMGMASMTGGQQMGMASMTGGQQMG

[2] = molecular target: T2, human iRhom1, endogenously expressed on RH-30 cells (human, UniProt Q96CC6 1-855); test: FACS on RH-30 cells (iRhom1-positive, not iRhom2-positive)
T2 construct: RH-30 cells are described as endogenously negative for iRhom2 but endogenously expressing iRhom1; also called NP_071895.3
T2 sequence: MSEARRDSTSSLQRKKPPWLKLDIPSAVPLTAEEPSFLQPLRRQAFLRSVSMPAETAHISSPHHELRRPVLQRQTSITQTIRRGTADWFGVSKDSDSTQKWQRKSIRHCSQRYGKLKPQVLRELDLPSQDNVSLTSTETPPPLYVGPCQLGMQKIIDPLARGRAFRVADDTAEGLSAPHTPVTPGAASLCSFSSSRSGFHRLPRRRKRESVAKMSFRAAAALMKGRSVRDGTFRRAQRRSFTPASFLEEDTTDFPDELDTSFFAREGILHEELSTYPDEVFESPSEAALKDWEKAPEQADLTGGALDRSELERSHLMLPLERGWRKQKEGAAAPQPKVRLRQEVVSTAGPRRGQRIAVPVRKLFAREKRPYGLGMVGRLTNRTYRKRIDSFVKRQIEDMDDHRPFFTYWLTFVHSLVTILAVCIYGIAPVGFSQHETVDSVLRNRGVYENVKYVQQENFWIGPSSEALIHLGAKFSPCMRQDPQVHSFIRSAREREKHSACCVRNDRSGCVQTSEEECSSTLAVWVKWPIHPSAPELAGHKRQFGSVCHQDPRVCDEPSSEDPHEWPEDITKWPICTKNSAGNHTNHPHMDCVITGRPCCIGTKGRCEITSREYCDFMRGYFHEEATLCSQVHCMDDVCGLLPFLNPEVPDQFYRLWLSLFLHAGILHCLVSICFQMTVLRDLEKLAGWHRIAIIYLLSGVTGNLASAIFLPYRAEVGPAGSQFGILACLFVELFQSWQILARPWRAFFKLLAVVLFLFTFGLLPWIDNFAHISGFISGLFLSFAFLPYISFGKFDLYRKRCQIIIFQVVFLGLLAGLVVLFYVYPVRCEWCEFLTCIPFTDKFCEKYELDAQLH

[3] = molecular target: T3, miR2-FL-WT-T7 (mouse iRhom2 full length wild type C-terminally tagged with 3 consecutive copies of the T7 … (mouse, UniProt Q80WQ6 1-827)); test: FACS on MEF-DKO-miR2-FL-WT-T7 cells
T3 construct: also called mouse iRhom2 variant expressed by MEF-DKO-miR2-FL-WT-T7 cells
T3 sequence: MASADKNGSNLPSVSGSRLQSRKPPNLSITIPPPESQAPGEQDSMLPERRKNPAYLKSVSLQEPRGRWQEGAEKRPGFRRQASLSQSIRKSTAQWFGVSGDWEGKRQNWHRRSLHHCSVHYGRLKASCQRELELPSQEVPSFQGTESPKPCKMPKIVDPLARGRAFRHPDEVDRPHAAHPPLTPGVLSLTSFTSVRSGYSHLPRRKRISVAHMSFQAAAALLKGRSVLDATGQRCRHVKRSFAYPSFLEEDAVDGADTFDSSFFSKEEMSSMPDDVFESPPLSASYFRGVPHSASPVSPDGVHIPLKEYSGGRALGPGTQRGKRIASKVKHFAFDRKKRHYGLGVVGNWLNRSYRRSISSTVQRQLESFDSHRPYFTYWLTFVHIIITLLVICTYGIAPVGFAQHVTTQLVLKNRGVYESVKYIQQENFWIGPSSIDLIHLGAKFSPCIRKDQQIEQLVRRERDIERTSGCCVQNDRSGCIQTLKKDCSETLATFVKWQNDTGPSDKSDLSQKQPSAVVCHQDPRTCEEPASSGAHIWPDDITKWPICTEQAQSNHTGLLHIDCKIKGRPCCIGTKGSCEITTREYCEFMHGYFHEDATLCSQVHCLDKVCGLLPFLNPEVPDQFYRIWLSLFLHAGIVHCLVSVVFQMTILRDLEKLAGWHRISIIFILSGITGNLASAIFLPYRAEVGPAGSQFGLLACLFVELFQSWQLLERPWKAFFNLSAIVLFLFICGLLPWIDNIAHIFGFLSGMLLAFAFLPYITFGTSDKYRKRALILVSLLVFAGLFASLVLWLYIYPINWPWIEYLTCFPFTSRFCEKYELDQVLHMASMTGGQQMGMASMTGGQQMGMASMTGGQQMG

B1: antibody 5 (antibody, V domains shown)
VH: QVTLKESGPGILQPSQTLSLTCSFSGFSLSTFGMGVGWIRQPSGKGLEWLAHIWWDDEKYYNSALKSRLTISKATSKNQAFLKIANVDTADTATYYCARISNYGSNYWYFNVWGTGTTVTVSS
VL: QVVLTQSPALMSASPGEKVTMTCSAGSSVSCMYWYQQKPGSSPRVLIYDTSNLASGVPARFTGSGSGTSYSLTISRMEAEDAASYYCQQWNSYPLTFGAGTKLELK
notes: Mouse IgG, kappa light chain; also called clone #5; purified antibody 5
[1]
  binding result: no binding (tested: 3 µg/ml)

B2: antibody 16 (antibody, V domains shown)
VH: QVTLKESGPGILQPSQTLSLTCSFSGFSLSTFALGVGWIRQPSGRGLEWLAHIWWDDDKYYNPALKSRLTISKDTSKNHVFLKIANVDTADTATYYCARITTYYYGMDYWGQGTSVTVSS
VL: DIVLSQSPATLSVTPGDSVSLFCRASQSIGNHLHWYQQESHASPRLLIKYASQSISGIPSRFSGSGSGTDFTLSINSVETEDFGMYFCQQSYNWPLTFGAGTKLELK
notes: Mouse IgG, kappa light chain; also called clone #16; m16
[2]
  binding result: no binding (tested: 3 µg/ml)

B3: antibody 3 (antibody, V domains shown)
VH: QVTLKESGPGILQPSQTLSLTCSFSGFSLTTFAMGIGWVRQPSGKGLEWLAHIWWDGEKYNNPVLKSRLTISKDTSKNQVFLRIANVDTPDTATYYCARISSIYYIIDNWGQGTSVTVSS
VL: DIVLTQSPATLSVTPGHSVSLSCRASQSISNNLHWYQKKSHESPRLLIKYVSQSISGIPSRFSGSGSGTDFTLSINSVETEDFGMYFCQQSYNWPLTFGAGTKLELK
notes: Mouse IgG, kappa light chain; also called clone #3; purified antibody 3
[3]
  binding result: no binding (tested: 3 µg/ml)
